Holding throughout (type): cell-based
For assay [1], the system named is wild-type P. aeruginosa PAO1. Description: Biofilm formation in continuous culture flow cells (confocal microscopy). Conditions: for effect on biofilm formation, iron-saturated protein / effect on biofilm development / formation: 20 μg/ml, flow cells; for effect on biofilm formation, iron-saturated protein: Fe-saturated protein; for effect on biofilm development / formation: Fe-unsaturated protein, up to day 7. Here is the method:
(§1) For studies of biofilm formation, wild-type P. aeruginosa PAO1 and the surface motility mutant were grown in flow cells similar to those described previously; the size of the flow channel was 5×35×1 mm. An overnight culture diluted to 10^7 cells per ml in fresh biofilm medium was used as the inoculum and flow was arrested for 45 min. Flow of biofilm medium with and without 20 μg/ml of Fe-unsaturated or Fe-saturated lactoferrin or conalbumin (Sigma Chemical Co.) was then initiated at a rate of 170 μl/min. Images were obtained using a Biorad (Hercules, Calif.) scanning confocal microscope.

The test system of a further assay is P. aeruginosa biofilms. In words: Antimicrobial susceptibility of biofilms grown in rotating disk reactor (viable cell counts). To be noted: Fe-unsaturated conalbumin during 48 h biofilm growth. As for the experimental part:
P. aeruginosa biofilms for susceptibility tests were grown in a rotating disk reactor. Fe-unsaturated conalbumin (Sigma Chemical Co.) was added to standard biofilm medium at indicated concentrations for the duration of biofilm growth. Discs and attached bacteria were then washed 3 times in distilled water, and treated for 4 h in 1 ml of H2O2 (Fisher Scientific) or tobramycin (Eli Lilly, Indianapolis, Ind.) at indicated concentrations. The treated discs were washed 3 times, and bacteria were removed and dispersed in 2 ml sterile PBS by homogenization (Brinkman Homogenizer, model 10/35). Viable cell numbers were enumerated by plate counting.

In assay [2] the test system is P. aeruginosa strain PAO1. In words: Growth of free swimming P. aeruginosa in biofilm medium containing lactoferrin (plate counting). As for the experimental part: (§2) P. aeruginosa strain PAO1 containing the GFP plasmid pMRP9-1 was used for most studies. Where indicated, an isogenic surface motility mutant (a PA01 deletion mutant from J. Kato (Department of Fermentation Technology, Hiroshima University, Hiroshima, Japan.) containing pMRP9-1 was used. Biofilm medium consisted of 1% Trypticase Soy Broth (Difco, Detroit, Mich.). In the growth experiments, approximately 10^3 bacteria from an overnight culture were added to 5 ml of biofilm medium containing the indicated concentrations of lactoferrin (Sigma Chemical Co., St Louis, Mo.). Cultures were incubated in acid-washed tubes at 37° C. with shaking. Colony-forming units were determined by plate counting. […] P. aeruginosa with pMRP9-1 was also grown in lactoferrin-containing effluent medium from flow cells. After one day of bacterial growth, effluent was collected on ice, filter sterilized, and growth was assessed as above.

The subject of assay [3] is P. aeruginosa. Description: Dividing times of attached bacteria in flow cells (time-lapse microscopy). As for the experimental part:
as §1
(§3) Bacterial movement was assessed by using time-lapse images acquired at 1 min intervals. Motion of bacterial cells was traced visually by following individual cells. VOXblast software (VayTek, Inc, Fairfield, Iowa) was used to obtain the X-Y coordinates of bacterial cells.
(§4) Bacterial behaviors were classified as follows. Squatters remained within a 15 μm circle drawn around the point of parental cell division until the time of its cell division. Ramblers remained attached to the growth surface, but moved outside the circle. Flyers detached and were carried away by media flow. Dividing times of attached bacteria were measured by counting the number of frames between cell divisions; 60 bacterial divisions were observed and the dividing times were averaged.

Assay [4] deals with P. aeruginosa. Description: Bacterial movement and behaviors (squatters, ramblers, flyers) in flow cells. Conditions: in the presence of lactoferrin; 40 parental cells, three generations; FIG. 3c,d. As for the experimental part:
as §3, §4

The subject of assay [5] is P. aeruginosa surface motility mutant (PA01 deletion mutant). Description: Biofilm formation of surface motility mutant in flow cells. Conditions: in the presence of lactoferrin, FIG. 4e,f. As for the experimental part: as §2

Where only a bound is given, the exact number is not on record here.

B1: conalbumin (protein, UniProt P02789 20-705, looked up)
Ovotransferrin: APPKSVIRWCTISSPEEKKCNNLRDLTQQERISLTCVQKATYLDCIKAIANNEADAISLDGGQAFEAGLAPYKLKPIAAEVYEHTEGSTTSYYAVAVVKKGTEFTVNDLQGKTSCHTGLGRSAGWNIPIGTLLHRGAIEWEGIESGSVEQAVAKFFSASCVPGATIEQKLCRQCKGDPKTKCARNAPYSGYSGAFHCLKDGKGDVAFVKHTTVNENAPDQKDEYELLCLDGSRQPVDNYKTCNWARVAAHAVVARDDNKVEDIWSFLSKAQSDFGVDTKSDFHLFGPPGKKDPVLKDLLFKDSAIMLKRVPSLMDSQLYLGFEYYSAIQSMRKDQLTPSPRENRIQWCAVGKDEKSKCDRWSVVSNGDVECTVVDETKDCIIKIMKGEADAVALDGGLVYTAGVCGLVPVMAERYDDESQCSKTDERPASYFAVAVARKDSNVNWNNLKGKKSCHTAVGRTAGWVIPMGLIHNRTGTCNFDEYFSEGCAPGSPPNSRLCQLCQGSGGIPPEKCVASSHEKYFGYTGALRCLVEKGDVAFIQHSTVEENTGGKNKADWAKNLQMDDFELLCTDGRRANVMDYRECNLAEVPTHAVVVRPEKANKIRDLLERQEKRFGVNGSEKSKFMMFESQNKDLLFKDLTKCLFKVREGTTYKEFLGDKFYTVISSLKTCNPSDILQMCSFLEGK
notes: a lactoferrin-like chicken egg host defense protein; iron chelating protein, tested Fe-unsaturated and Fe-saturated
Regarding B1, in assay [1], the “effect on biofilm formation, iron-saturated protein” value was “not when iron-saturated” and the “effect on biofilm development / formation” value was “prevented biofilm formation in the iron-unsaturated state”. Also, the “effect of growth in conalbumin on biofilm resistance to H2O2” value in the assay on P. aeruginosa biofilms (then H2O2 4 h) is recorded as “decreased resistance to both agents in a dose-dependent manner”. For the same molecule, in the assay with P. aeruginosa biofilms (then tobramycin 4 h), the “effect of growth in conalbumin on biofilm resistance to tobramycin” value is recorded as “decreased resistance to both agents in a dose-dependent manner”.

B2: lactoferrin (protein, UniProt P02788 20-710, looked up)
Lactotransferrin: GRRRSVQWCAVSQPEATKCFQWQRNMRKVRGPPVSCIKRDSPIQCIQAIAENRADAVTLDGGFIYEAGLAPYKLRPVAAEVYGTERQPRTHYYAVAVVKKGGSFQLNELQGLKSCHTGLRRTAGWNVPIGTLRPFLNWTGPPEPIEAAVARFFSASCVPGADKGQFPNLCRLCAGTGENKCAFSSQEPYFSYSGAFKCLRDGAGDVAFIRESTVFEDLSDEAERDEYELLCPDNTRKPVDKFKDCHLARVPSHAVVARSVNGKEDAIWNLLRQAQEKFGKDKSPKFQLFGSPSGQKDLLFKDSAIGFSRVPPRIDSGLYLGSGYFTAIQNLRKSEEEVAARRARVVWCAVGEQELRKCNQWSGLSEGSVTCSSASTTEDCIALVLKGEADAMSLDGGYVYTAGKCGLVPVLAENYKSQQSSDPDPNCVDRPVEGYLAVAVVRRSDTSLTWNSVKGKKSCHTAVDRTAGWNIPMGLLFNQTGSCKFDEYFSQSCAPGSDPRSNLCALCIGDEQGENKCVPNSNERYYGYTGAFRCLAENAGDVAFVKDVTVLQNTDGNNNEAWAKDLKLADFALLCLDGKRKPVTEARSCHLAMAPNHAVVSRMDKVERLKQVLLHQQAKFGRNGSDCPDKFCLFQSETKNLLFNDNTECLARLHGKTTYEKYLGPQYVAGITNLKKCSTSPLLEACEFLRK
notes: known iron chelating protein (Sigma Chemical Co.), proteinaceous metal chelator
For B2, the “effect on growth rate of free swimming P. aeruginosa PAO1” value in assay [2] (20 μg/ml lactoferrin (sub-inhibitory), FIG. 1) was “did not affect the growth rate”. The “concentration of lactoferrin that inhibited bacterial growth” value in assay [2] (biofilm medium, 37° C. with shaking, varied for different lots) was not below 30 µg/mL. Also, the “number of doublings in lactoferrin-containing effluent (conditioned) medium from flow cells” value in assay [2] (in 22 h, spent lactoferrin-treated medium) amounted to 6 times. Moreover, the “effect on biofilm development / formation” value is “differentiated biofilm formation was completely blocked” in assay [1] and “disrupted this pattern of development” in assay [1] (listed as Lactoferrin). Moreover, the “effect on structure of mature biofilms” value in assay [1] (5 day-old biofilms exposed to lactoferrin-containing medium for 48 h) is given as “failed to alter their structure”. Further, in the assay with P. aeruginosa [3] (20 μg/ml lactoferrin vs. without), the “increase of dividing time of attached cells” value came out at 27%. In addition, the “effect on growth of attached cells” value with P. aeruginosa [3] (concentration of lactoferrin that prevents biofilm formation) is “only slightly reduced the growth of attached cells”. In addition, in the assay on P. aeruginosa [3] (with 20 μg/ml lactoferrin, average of 60 divisions), the “dividing time of attached cells” value stood at 127 min. Besides, the “proportion of bacteria as squatters, ramblers, flyers” value in the assay with P. aeruginosa [4] was “a significantly larger proportion of cells exhibited rambling behavior and fewer were squatters”. For the same molecule, in assay [5], the “biofilm formation by surface motility mutant” value was “formed microcolonies and irregularly shaped biofilms in both the absence and presence of lactoferrin”.

B3: lactoferrin (protein, UniProt P02788 20-710, looked up)
Lactotransferrin: GRRRSVQWCAVSQPEATKCFQWQRNMRKVRGPPVSCIKRDSPIQCIQAIAENRADAVTLDGGFIYEAGLAPYKLRPVAAEVYGTERQPRTHYYAVAVVKKGGSFQLNELQGLKSCHTGLRRTAGWNVPIGTLRPFLNWTGPPEPIEAAVARFFSASCVPGADKGQFPNLCRLCAGTGENKCAFSSQEPYFSYSGAFKCLRDGAGDVAFIRESTVFEDLSDEAERDEYELLCPDNTRKPVDKFKDCHLARVPSHAVVARSVNGKEDAIWNLLRQAQEKFGKDKSPKFQLFGSPSGQKDLLFKDSAIGFSRVPPRIDSGLYLGSGYFTAIQNLRKSEEEVAARRARVVWCAVGEQELRKCNQWSGLSEGSVTCSSASTTEDCIALVLKGEADAMSLDGGYVYTAGKCGLVPVLAENYKSQQSSDPDPNCVDRPVEGYLAVAVVRRSDTSLTWNSVKGKKSCHTAVDRTAGWNIPMGLLFNQTGSCKFDEYFSQSCAPGSDPRSNLCALCIGDEQGENKCVPNSNERYYGYTGAFRCLAENAGDVAFVKDVTVLQNTDGNNNEAWAKDLKLADFALLCLDGKRKPVTEARSCHLAMAPNHAVVSRMDKVERLKQVLLHQQAKFGRNGSDCPDKFCLFQSETKNLLFNDNTECLARLHGKTTYEKYLGPQYVAGITNLKKCSTSPLLEACEFLRK
modifications: iron-saturated
notes: lactoferrin in the iron-saturated state
As to B3, the “effect on biofilm formation, iron-saturated protein” value in assay [1] is “did not prevent P. aeruginosa biofilm formation”.
